The results in this text go back to paper PMC6032367, “A peptide‐display protein scaffold to facilitate single molecule force studies of aggregation‐prone peptides” (Protein Science : A Publication of the Protein Society, 2018).

Series [1] addresses pL αSyn71–82 (protein L W47Y I60F N14C scaffold with αSyn residues 71–82 inserted in the extended β3‐β4 loop). The series can be described thus: single molecule force spectroscopy (AFM); pL constructs coupled through Cys14 to maleimide‐PEG on both the AFM tip and the surface; retraction 1 μm s^-1 (1000 nm s^-1), approach 2 µm s^-1; 20 mM HEPES pH 7.5, room temperature; triplicate.

In series [2] the target is pL γSyn71–82 (protein L W47Y I60F N14C scaffold with γSyn residues 71–82 inserted in the extended β3‐β4 loop). The series can be described thus: native MS; ESI–MS of 100 μM pL constructs in 100 mM ammonium acetate pH 6.8, equal volumes mixed for heterodimers; after quiescent incubation for 4 h at 25°C.
The target of series [3] is pL αSyn71–82 (protein L W47Y I60F N14C scaffold with αSyn residues 71–82 inserted in the extended β3‐β4 loop). Described as above.
Series [4] shares this target. Put plainly: dynamic force spectroscopy (AFM); pL αSyn71–82 on AFM tip and surface; retraction speeds 200 to 5000 nm s^-1; Bell‐Evans fit, dissociation rate constant in the absence of force; 20 mM HEPES pH 7.5, room temperature.
Series [5] deals with T1, αSyn71–82 synthetic peptide.
T1 peptide: Ac-VTGVTAVAQKTV-NH2
The series can be described thus: cell-based or functional assay.

Series [6] deals with the molecule itself. Put plainly: native MS; ESI–IMS–MS of synthetic peptides alone and in a 1:1 mixture; 100 μM final in 100 mM ammonium acetate pH 6.8.
Series [7] deals with T2, αSyn71–82 synthetic peptide.
T2 chain: VTGVTAVAQKTV
The description is as above. The note with it: remark: other sources report otherwise.

In the case of “pL γSyn71–82 (protein L W47Y I60F N14C scaffold with γSyn residues 71–82 inserted in the extended β3‐β4 loop)”, in series [1], the hit rate (frequency of detection) was found to be 3.2% and the rupture force (F R) is 53 pN. The molecule further displayed a stoichiometry N in series [2] of 2.

In series [1], “pL αSyn71–82 (protein L W47Y I60F N14C scaffold with αSyn residues 71–82 inserted in the extended β3‐β4 loop)” yielded a hit rate of 4% and a rupture force (F R) of 57 pN. This molecule returned a stoichiometry N in series [3] of less than 3. Moreover, in series [4], the koff came to 0.18 s⁻¹ and the lifetime stood at 6 s.

B1: γSyn71–82 synthetic peptide (peptide)
peptide: Ac-VSSVNTVATKTV-NH2
notes: γ‐synuclein, central NAC region, residues 71–82; also called central NAC region of γSyn; source: bought: Genscript, synthetic peptide, >99% purity
B1: in series [5], the “increase in lag‐time of ThT fluorescence of the 1:1 peptide mixture compared with αSyn71–82 alone” value was determined as 2.5 fold and the “increase in lag‐time of ThT fluorescence of the 1:1 peptide mixture compared with γSyn71–82 alone” value is 5.7 fold. The “stoichiometry N” value in series [6] was no more than 14.

As for Ac-VTGVTAVAQKTV-NH2 [αSyn71–82 synthetic peptide], in series [7], the stoichiometry N was less than 14.
